B1: NEK8 (parent)
chain: VVGTPCYISPELCEGKPYNQKSDI
B2: C1orf137 (parent)
chain: LPQETNLTLKVCKPQAPQKLDPTL

Variants of: B1
Assay: protein stability index of a GFP-peptide fusion (GPS, HEK-293T) (PSI 1-6); higher = more stable
Details: c terminus: a fixed tail appended
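Further: lentivirally expressed fusions sorted by FACS into six bins by GFP to DsRed ratio, PSI derived from sequencing read proportions per bin multiplied by bin number.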

Variant | protein stability index
VVGTPCYISPELCDGKPYNQKSDI [E14D] | 2.45
VVGTPCYISPELCEGKRYNQKSDI [P17R] | 3.38
VVGTPCYISPELCEGKGYNQKSDI [P17G] | 2.76
VVDTPCYISPELCEGKPYNQKSDI [G3D] | 3.26
VVGTPCYISPELCEGKPYAQKSDI [N19A] | 2.79
VVGTPWYISPELCEGKPYNQKSDI [C6W] | 2.5
VVGTPGYISPELCEGKPYNQKSDI [C6G] | 3.39
TVGTPCYISPELCEGKPYNQKSDI [V1T] | 3.76
VVGTPCYISPELCEGEPYNQKSDI [K16E] | 3.05

Variants of: B2
Assay: as above
Details: c terminus: a fixed tail appended

Variant | protein stability index
LPQETNLTLKVCKPQAPQKLDTTL [P22T] | 3.54
LPQETNLTLKVCKPQAPQKLDWTL [P22W] | 2.83
LPQETNLTLKVCKPQAPQKLDVTL [P22V] | 2.87
LPQETNLTLKVCKPQAPQKLDETL [P22E] | 4.13
LPQETNLTLKVCKPQAPQKLDGTL [P22G] | 3.39
LPQETNLTLKVCKPQAPQKLDLTL [P22L] | 2.93
LPQETNLTLKVCKPQAPQKLDDTL [P22D] | 4.38
LPQETNLTLKVCKPQAPQKLDCTL [P22C] | 2.95
LPQETNLTLKVCKPQAPQKLDKTL [P22K] | 4
LPQETNLTLKVCKPQAPQKLDITL [P22I] | 2.08
LPQETNLTLKVCKPQAPQKLDNTL [P22N] | 3.38
LPQETNLTLKVCKPQAPQKLDHTL [P22H] | 3.13
LPQETNLTLKVCKPQAPQKLDRTL [P22R] | 3.84
LPQETNLTLKVCKPQAPQKLDATL [P22A] | 3.16
LPQETNLTLKVCKPQAPQKLDMTL [P22M] | 2.98
LPQETNLTLKVCKPQAPQKLDQTL [P22Q] | 4.25
LPQETNLTLKVCKPQAPQKLDYTL [P22Y] | 3.06
LPQETNLTLKVCKPQAPQKLDSTL [P22S] | 2.87
LPQETNLTLKVCKPQAPQKLDFTL [P22F] | 2.35
LPQETNLTLKVCKPQVPQKLDPTL [A16V] | 3.94
LPQETNLTLKVCKPQHPQKLDPTL [A16H] | 4.14
LPQETNLTLKVCKPQGPQKLDPTL [A16G] | 3.98

Variant | protein stability index
LPQETNLTLKVCKPQKPQKLDPTL [A16K] | 4.15
LPQETNLTLKVCKPQYPQKLDPTL [A16Y] | 3.38
LPQETNLTLKVCKPQTPQKLDPTL [A16T] | 4.07
LPQETNLTLKVCKPQLPQKLDPTL [A16L] | 3.69
LPQETNLTLKVCKPQPPQKLDPTL [A16P] | 3.62
LPQETNLTLKVCKPQRPQKLDPTL [A16R] | 3.58
LPQETNLTLKVCKPQMPQKLDPTL [A16M] | 3.54
LPQETNLTLKVCKPQSPQKLDPTL [A16S] | 4.02
LPQETNLTLKVCKPQNPQKLDPTL [A16N] | 4.04
LPQETNLTLKVCKPQEPQKLDPTL [A16E] | 4.45
LPQETNLTLKVCKPQDPQKLDPTL [A16D] | 4.41
LPQETNLTLKVCKPQCPQKLDPTL [A16C] | 3.6
LPQETNLTLKVCKPQWPQKLDPTL [A16W] | 2.02
LPQETNLTLKVCKPQQPQKLDPTL [A16Q] | 3.96
LPQETNLTLKVCKPQFPQKLDPTL [A16F] | 2.92
LPQETNLTLKVCKPQIPQKLDPTL [A16I] | 3.56
LPQETNLTLKVCKPQAPQMLDPTL [K19M] | 3.53
LPQETNLTLKVCKPQAPQELDPTL [K19E] | 3.77
LPQETNLTLKVCKPQAPQQLDPTL [K19Q] | 3.85
LPQETNLTLKVCKPQAPQALDPTL [K19A] | 3.8
LPQETNLTLKVCKPQAPQWLDPTL [K19W] | 2.36
LPQETNLTLKVCKPQAPQGLDPTL [K19G] | 3.5

Variant | protein stability index
LPQETNLTLKVCKPQAPQTLDPTL [K19T] | 4.06
LPQETNLTLKVCKPQAPQYLDPTL [K19Y] | 3.36
LPQETNLTLKVCKPQAPQRLDPTL [K19R] | 3.55
LPQETNLTLKVCKPQAPQSLDPTL [K19S] | 3.72
LPQETNLTLKVCKPQAPQPLDPTL [K19P] | 3.96
LPQETNLTLKVCKPQAPQFLDPTL [K19F] | 2.96
LPQETNLTLKVCKPQAPQLLDPTL [K19L] | 3.01
LPQETNLTLKVCKPQAPQHLDPTL [K19H] | 3.78
LPQETNLTLKVCKPQAPQDLDPTL [K19D] | 3.92
LPQETNLTLKVCKPQAPQCLDPTL [K19C] | 2.92
LPQETNLTLKVCKPQAPQVLDPTL [K19V] | 4.06
LPQETNLTLKVCKPQAPQNLDPTL [K19N] | 3.56
LPQETNLTLKVCKPQAPQILDPTL [K19I] | 2.54
LPQETNLTLKVCKPQAPQKLDPTW [L24W] | 3.3
LPQETNLTLKVCKPQAPQKLDPTR [L24R] | 4.33
LPQETNLTLKVCKPQAPQKLDPTQ [L24Q] | 4.37
LPQETNLTLKVCKPQAPQKLDPTK [L24K] | 4.21
LPQETNLTLKVCKPQAPQKLDPTT [L24T] | 4.39
LPQETNLTLKVCKPQAPQKLDPTC [L24C] | 4.35
LPQETNLTLKVCKPQAPQKLDPTM [L24M] | 3.94
LPQETNLTLKVCKPQAPQKLDPTS [L24S] | 4.53
LPQETNLTLKVCKPQAPQKLDPTE [L24E] | 4.8

Variant | protein stability index
LPQETNLTLKVCKPQAPQKLDPTH [L24H] | 4.75
LPQETNLTLKVCKPQAPQKLDPTF [L24F] | 4.32
LPQETNLTLKVCKPQAPQKLDPTN [L24N] | 4.56
LPQETNLTLKVCKPQAPQKLDPTG [L24G] | 4.52
LPQETNLTLKVCKPQAPQKLDPTD [L24D] | 5.42
LPQETNLTLKVCKPQAPQKLDPTI [L24I] | 4.1
LPQETNLTLKVCKPQAPQKLDPTV [L24V] | 4.52
LPQETNLTLKVCKPQAPQKLDPTA [L24A] | 4.34
LPQETNLTLKVCKPQAPQKLDPTY [L24Y] | 3.37
LPQETNLTLKVCKPQAPQKLDPLL [T23L] | 3.06
LPQETNLTLKVCKPQAPQKLDPFL [T23F] | 2.98
LPQETNLTLKVCKPQAPQKLDPSL [T23S] | 3.85
LPQETNLTLKVCKPQAPQKLDPWL [T23W] | 2.48
LPQETNLTLKVCKPQAPQKLDPRL [T23R] | 3.48
LPQETNLTLKVCKPQAPQKLDPHL [T23H] | 3.44
LPQETNLTLKVCKPQAPQKLDPKL [T23K] | 4.16
LPQETNLTLKVCKPQAPQKLDPIL [T23I] | 3.37
LPQETNLTLKVCKPQAPQKLDPVL [T23V] | 3.4
LPQETNLTLKVCKPQAPQKLDPML [T23M] | 3.32

Source: the supplement of paper PMC10567573
